{"source": "patent US20230265167A1", "about": "“COMPOSITIONS HAVING NEUROREGENERATIVE APPLICATIONS” (GRIFOLS WORLDWIDE OPERATIONS LIMITED, priority 2020, published 2023)", "molecules": {"B1": {"name": "apo-lactoferrin: structural and functional homologue of apo-transferrin, obtained from Athens Research & Technology (protein, UniProt P02788 20-710, looked up)", "Lactotransferrin": "GRRRSVQWCAVSQPEATKCFQWQRNMRKVRGPPVSCIKRDSPIQCIQAIAENRADAVTLDGGFIYEAGLAPYKLRPVAAEVYGTERQPRTHYYAVAVVKKGGSFQLNELQGLKSCHTGLRRTAGWNVPIGTLRPFLNWTGPPEPIEAAVARFFSASCVPGADKGQFPNLCRLCAGTGENKCAFSSQEPYFSYSGAFKCLRDGAGDVAFIRESTVFEDLSDEAERDEYELLCPDNTRKPVDKFKDCHLARVPSHAVVARSVNGKEDAIWNLLRQAQEKFGKDKSPKFQLFGSPSGQKDLLFKDSAIGFSRVPPRIDSGLYLGSGYFTAIQNLRKSEEEVAARRARVVWCAVGEQELRKCNQWSGLSEGSVTCSSASTTEDCIALVLKGEADAMSLDGGYVYTAGKCGLVPVLAENYKSQQSSDPDPNCVDRPVEGYLAVAVVRRSDTSLTWNSVKGKKSCHTAVDRTAGWNIPMGLLFNQTGSCKFDEYFSQSCAPGSDPRSNLCALCIGDEQGENKCVPNSNERYYGYTGAFRCLAENAGDVAFVKDVTVLQNTDGNNNEAWAKDLKLADFALLCLDGKRKPVTEARSCHLAMAPNHAVVSRMDKVERLKQVLLHQQAKFGRNGSDCPDKFCLFQSETKNLLFNDNTECLARLHGKTTYEKYLGPQYVAGITNLKKCSTSPLLEACEFLRK", "modifications": "iron-free apo form", "notes": "structural and functional homologue of apo-transferrin, obtained from Athens Research & Technology"}, "B2": {"name": "N-mut rec ApoTf: Y95F/Y188F Transferrin N-lobe mutant protein, SEQ ID 4, reduced iron-binding capacity (protein)", "chain": "VPDKTVRWCAVSEHEATKCQSFRDHMKSVIPSDGPSVACVKKASYLDCIRAIAANEADAVTLDAGLVYDAYLAPNNLKPVVAEFYGSKEDPQTFFYAVAVVKKDSGFQMNQLRGKKSCHTGLGRSAGWNIPIGLLYCDLPEPRKPLEKAVANFFSGSCAPCADGTDFPQLCQLCPGCGCSTLNQYFGFSGAFKCLKDGAGDVAFVKHSTIFENLANKADRDQYELLCLDNTRKPVDEYKDCHLAQVPSHTVVARSMGGKEDLIWELLNQAQEHFGKDKSKEFQLFSSPHGKDLLFKDSAHGFLKVPPRMDAKMYLGYEYVTAIRNLREGTCPEAPTDECKPVKWCALSHHERLKCDEWSVNSVGKIECVSAETTEDCIAKIMNGEADAMSLDGGFVYIAGKCGLVPVLAENYNKSDNCEDTPEAGYFAVAVVKKSASDLTWDNLKGKKSCHTAVGRTAGWNIPMGLLYNKINHCRFDEFFSEGCAPGSKKDSSLCKLCMGSGLNLCEPNNKEGYYGYTGAFRCLVEKGDVAFVKHQTVPQNTGGKNPDPWAKNLNEKDYELLCLDGTRKPVEEYANCHLARAPNHAVVTRKDKEACVHKILRQQQHLFGSNVTDCSGNFCLFRSETKDLLFRDDTVCLAKLHDRNTYEKYLGEEYVKAVGNLRKCSTSSLLEACTFRRP", "modifications": "Y95F/Y188F mutant"}, "B3": {"name": "BDNF: brain-derived neurotrophic factor; NGF superfamily; SEQ ID NO: 6 (protein, listed as Homo sapiens)", "chain": "MFHQVRRVMTILFLTMVISYFGCMKAAPMKEANIRGQGGLAYPGVRTHGTLESVNGPKAGSRGLTSLADTFEHVIEELLDEDQKVRPNEENNKDADLYTSRVMLSSQVPLEPPLLFLLEEYKNYLDAANMSMRVRRHSDPARRGELSVCDSISEWVTAADKKTAVDMSGGTVTVLEKVPVSKGQLKQYFYETKCNPMGYTKEGCRGIDKRHWNSQCRTTQSYVRALTMDSKKRIGWRFIRIDTSCVCTLTIKRGR"}}, "system": "SH-SY5Y cells", "assay": "Neurite outgrowth (differentiation) in SH-SY5Y cells, Tubulin Tracker imaging", "type": "cell-based, human", "experimental": "Transferrin is utilized in cell culture and in-vivo to deliver iron as a nutrient to cells. This is typically accomplished through the actions of holo-transferrin (HoloTf) binding to, and endocytosis by, its cognate receptor CD71, the transferrin receptor 1 (TfR1). Transferrin is typically believed to provide cells with iron as a means to promote and sustain metabolic activity. […] Induction of neuronal differentiation was assessed by morphological parameters of neurite formation (a key element typically used as a marker of neuronal differentiation, neuronal health, and function) according to the procedures of Agholme, 2010. J. of Alzheimer's Disease. Vol. 20:1p 069-108; and Dyberg et al., 2017. PNAS Vol 114 (32), E6603-E6612.\nUndifferentiated SH-SY5Y cells were seeded into 96 well clear bottom plates in media containing 0.1% FBS. A serum-free base media was utilized as recommended by the supplier for SH-SY5Y cells (Sigma, Cat #94030304-1VL). Twenty-four hours after seeding cells, a 3× stock solution of ApoTf, final concentrations indicated on the x-axis, in serum free base media was added to the cells. ApoTf was obtained and purified from pooled human plasma and dosed at a final concentration of 0.2 mg/mL.\nCells were allowed to differentiate for 6 days. Neurite growth was assessed by imaging and image analysis. […]\nAfter obtaining images, the MetaExpress Neurite Outgrowth analysis module (Molecular Devices) was used to identify cells, cell bodies, and quantify neurites. […] The Outgrowth Fold Change was determined by setting the untreated control cells to a value of 1 with all other treatments shown relative to untreated control.\nUndifferentiated SH-SY5Y cells were seeded and treated as described in Example 1. Neurite growth was assessed by imaging and image analysis. […] After obtaining images, the MetaExpress Neurite Outgrowth analysis module (Molecular Devices) was used to identify cell bodies and quantify neurites. […] The Outgrowth Fold Change was determined by setting the untreated control to a value of 1 with all other treatments shown relative to untreated control. […]", "data": [{"molecule": "B1", "values": [{"measurement": "neurogenesis / differentiation of SH-SY5Y", "setting": "FIG. 4, proteins at 0.2 mg/mL", "value": "induced differentiation"}]}, {"molecule": "B2", "values": [{"measurement": "neurogenesis (neurite outgrowth) of SH-SY5Y", "setting": "FIG. 3B, proteins at 0.2 mg/mL", "value": "almost equal to that of ApoTf and rec ApoTf at inducing differentiation"}]}, {"molecule": "B3", "values": [{"measurement": "differentiation of SH-SY5Y, factor alone", "setting": "FIGS. 7A-7D, BDNF 25 ng/mL, GDNF 1000 ng/mL, CNTF 250 ng/mL, PACAP 200 nM", "value": "differentiation was not induced"}]}]}
